Consider 1 molecule from patent publication US7572594B2, “Screening assays for agonists or antagonists or receptor activator of NF-κB” (Immunex Corporation, priority 2000, dated 2009).

Experiment [1] relates to c-src tyrosine kinase. Nature of the experiment: c-src immune complex kinase assay in RANK −/− osteoclast precursors infected with RANK retrovirus. It is filed as cell-based, mouse. The procedure:
Experiments were conducted in which DNA encoding wild-type or human RANK/TRAF6 binding mutant (RANK Δ340-421) was introduced into hematopoietic cells isolated from RANK −/− mice. Full-length and mutant human RANK DNAs were subcloned into the pBMNZ retroviral vector as previously described (Kinsella and Nolan, 1996, Human Gene Therapy 7:1405-1413). Infectious RANK-containing retrovirus was produced in 293-E Phoenix packaging cells as described (Kinsella and Nolan, 1996). Supernatants from these cells were used as a source of infectious virus particles.
The generation of the RANK −/− mice used in these assays has been described previously (Dougall et al., 1999). Spleen cells were isolated from 3-6 week old RANK−/− mice and enriched for osteoclast precursors by depleting the initial cell population of various types of cells other than osteoclast precursors. For this “depletion” step, the cells were incubated with biotinylated antibodies against CD3 (specific for T cells), Ter-119 (specific for erythrocytes), and GR-1 (specific for granulocytes). After the antibodies had bound to their respective target cells, streptavidin-conjugated magnetic beads were added to the culture, and the mixture of cells was passed over magnetic columns (MACS depletion columns; MILLTENNYI). […]
To induce c-src and F-actin rings, recombinant mRANK-L/leucine zipper protein was added to the cultures at a concentration of 1 μg/ml for various times after which the cells were lysed in a buffer containing 50 mM HEPES (pH 7.2), 10% glycerol, 250 mM NaCl and 1% Triton X-100. […] C-src activity in the immune complex was monitored using a commercially available assay kit (Upstate Biotechnology, Lake Placid, N.Y.). […] The phosphorylated substrate peptide was then separated from the residual labeled ATP using phosphocellulose paper and labeled peptide was quantified using a scintillation counter. […]

Experiment [2] relates to endogenous c-jun kinase (JNK). The experiment can be described thus: JNK immune-complex kinase assay in transfected 3T3 cells. It is filed as cell-based, murine. To be noted: 3T3 cells 24 hours after transfection, absence of RANK-L stimulation. The procedure: This example describes evaluating murine 3T3 cells transfected with plasmids containing DNA encoding human FEO RANK (SEQ ID NO:9), and murine 3T3 cells expressing recombinant DNA encoding human wild type RANK (SEQ ID NO:1) for their relative ability to activate endogenous c-jun kinase (JNK) in the absence of RANK-L stimulation. JNK is known to be activated as a consequence of RANK signal transduction.
For JNK assays, whole cell extracts were prepared from 3T3 cells 24 hours after transfection. Cells were lysed in a buffer containing 20 mM HEPES, pH 7.4, 2 mM EGTA, 50 mM β-glycerol phosphate, 1 mM DTT, 1 mM sodium orthovanadate, 1% Triton-X 100, 10% glycerol and the protease inhibitors leupeptin, pepstatin A, and PMSF. Clarified lysates were immunoprecipitated with 1 μg each anti-JNK (FL) and anti-JNK (C17) antibodies (both from Santa Cruz Biotechnology, Inc. Santa Cruz, Calif.). […] JNK activity was determined by an immune-complex assay using 1 μg of a fusion protein of glutathione-S-transferase and amino acids 1-169 of […] (GST-cJun (1-169)) (UBI, Lake Placid, N.Y.) and 5 μCi of [^32P]-ATP as substrate in 40 μl of assay buffer at 30° C. for 20 min. […]

B1: wild type RANK: full-length human RANK, receptor activator of NF-κB (SEQ ID NO:2), expressed from vector or retrovirus (protein, listed as Homo sapiens)
chain: MAPRARRRRPLFALLLLCALLARLQVALQIAPPCTSEKHYEHLGRCCNKCEPGKYMSSKCTTTSDSVCLPCGPDEYLDSWNEEDKCLLHKVCDTGKALVAVVAGNSTTPRRCACTAGYHWSQDCECCRRNTECAPGLGAQHPLQLNKDTVCKPCLAGYFSDAFSSTDKCRPWTNCTFLGKRVEHHGTEKSDAVCSSSLPARKPPNEPHVYLPGLIILLLFASVALVAAIIFGVCYRKKGKALTANLWHWINEACGRLSGDKESSGDSCVSTHTANFGQQGACEGVLLLTLEEKTFPEDMCYPDQGGVCQGTCVGGGPYAQGEDARMLSLVSKTEIEEDSFRQMPTEDEYMDRPSQPTDQLLFLTEPGSKSTPPFSEPLEVGENDSLSQCFTGTQSTVGSESCNCTEPLCRTDWTPMSSENYLQKEVDSGHCPHWAASPSPNWADVCTGCRNPPGEDCEPLVGSPKRGPLPQCAYGMGLPPEEEASRTEARDQPEDGADGRLPSSARAGAGSGSSPGGQSPASGNVTGNSNSTFISSGQVMNFKGDIIVVYVSQTSQEGAAAAAEPMGRPVQEETLARRDSFAGNGPRFPDPCGGPEGLREPEKASRPVQEQGGAKA
As for B1, the “32P incorporated into a c-src-specific substrate versus extracts from cells defective in RANK” value in experiment [1] (cell extracts following differentiation) is on record as “about 15 fold”. In addition, in experiment [1] (cells differentiated after retroviral infection, background = uninfected RANK −/− cells), the c-src activity result is recorded as “high levels of c-src activity”. Moreover, the “activation of JNK” value in experiment [2] is “not”.
